Data on 3 molecules can be found in publication PMC11109316, “In vivo neutralization of coral snake venoms with an oligoclonal nanobody mixture in a murine challenge model” (Nature Communications, 2024).

This assay addresses T1, α-cobratoxin (Naja kaouthia, UniProt P01391).
T1 construct: also called long chain αNTx from Naja kaouthia; source: bought: Latoxan
Briefly: DELFIA (dose-response, capture format). The following applies: both partners purified.

B1: TPL0629_01_G06 (VHH)
VHH: QVQLQESGGGLVQAGGSLRLSCAASGRAFSSYTMGWFRQAPGDMRELVAQITSSGSSTYHIDSVEGRFAISRDNAKNTVYLQMNSLQPEDAAIYYCAGGLNAYQYWGQGTQVTVSS
notes: also called anti-αNTx VHH
Consider B1, for which the binding result was “no binding (tested: 1 µM)”.

B2: TPL0629_01_D11 (VHH)
VHH: QVQLQESGGGLVQAGGSLRLSCAGSGDALGSYTMGWFRQAPGGGRDLVAQISVDGSSTYHLDSVRGRFTASRDNAKNTVYLEMNSLNSEDTAVYYCAAAPLLRGNYDYWGQGTQVTVSS
notes: also called anti-αNTx VHH; monovalent VHH
For B2, the binding result is recorded as “no binding (tested: 1 µM)”.

B3: TPL0629_01_A07 (VHH)
VHH: QVQLQESGGGLVQAGGSLRLSCTASEGTVSYSTVGWFRQAPGGGRDLVAQSGSSDEDTHVAGSVKGRFTISRDNTNNTVYLQMSSLKPEDSAVYYCAAAPGDQYKYWGQGTQVTVSS
notes: also called anti-αNTx VHH
As for B3, the binding result is on record as “no binding (tested: 1 µM)”.
